Reference: article doi:10.1101/2020.08.12.247809 (bioRxiv, 2020)

Tests used:
SEC = target: the molecule itself; assay: SEC
GST-HDAC1 = GST-HDAC1 (mouse, UniProt O09106 1-482); assay: pull-down
GST-HDAC1, sequence (O09106 whole entry): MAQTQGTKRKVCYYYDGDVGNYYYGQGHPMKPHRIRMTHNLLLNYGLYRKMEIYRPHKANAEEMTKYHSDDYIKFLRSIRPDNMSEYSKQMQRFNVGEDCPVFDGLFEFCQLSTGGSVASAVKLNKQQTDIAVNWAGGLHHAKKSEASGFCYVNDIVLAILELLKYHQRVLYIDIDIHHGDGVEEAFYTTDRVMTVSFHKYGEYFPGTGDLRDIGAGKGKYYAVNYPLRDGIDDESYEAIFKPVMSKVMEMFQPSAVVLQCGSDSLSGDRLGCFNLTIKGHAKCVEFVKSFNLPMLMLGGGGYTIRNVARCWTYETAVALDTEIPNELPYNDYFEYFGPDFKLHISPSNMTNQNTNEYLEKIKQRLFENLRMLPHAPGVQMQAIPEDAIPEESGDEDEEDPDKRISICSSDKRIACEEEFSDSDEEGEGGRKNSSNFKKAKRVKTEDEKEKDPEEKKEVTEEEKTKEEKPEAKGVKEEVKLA

B1: His6-KIAA1841(BTB) (domain or fragment, mouse, UniProt Q68FF0-1 144-261, looked up)
chain: GPNMVIHVCDEAKSLKEDFICPRDLLISEMKYFAEYLSMDAQRWEEVDISVHCDVHIFNWLIKYVKRNTKESKDCEIPALEPGNVISILISSEFLKMDSLVEQCIQYCHKNMNAIVAA
stoichiometry N (SEC): 2 | binding result (GST-HDAC1): binds
